Earlier results on 1 substance are cited in patent publication US20220031761A1, “COMPOSITIONS FOR PROMOTING SKIN REGENERATION, SKIN REJUVENATION, AND WOUND HEALING AND METHODS FOR PREPARATION AND USE THEREOF” (priority 2018, published 2022).

The conditions of this series: in vivo.

Turning to “HGF: growth factor secreted by mesenchymal cells, eluted by placental and umbilical tissue”, the “half-life of HGF” value was “approximately 3 hours”.
